Results reported in US7867500B2, “Cofactor that modulates steroid receptor activities” (The United States of America as represented by the …, priority 2004, dated 2011).

Biological target: T1, androgen receptors (ARs) (Homo sapiens, UniProt P10275)
T1 construct: plus VP16 fused to the indicated full length receptors; expressed in transfected cells; host or cells: CV-1
T1 sequence (P10275 1-920): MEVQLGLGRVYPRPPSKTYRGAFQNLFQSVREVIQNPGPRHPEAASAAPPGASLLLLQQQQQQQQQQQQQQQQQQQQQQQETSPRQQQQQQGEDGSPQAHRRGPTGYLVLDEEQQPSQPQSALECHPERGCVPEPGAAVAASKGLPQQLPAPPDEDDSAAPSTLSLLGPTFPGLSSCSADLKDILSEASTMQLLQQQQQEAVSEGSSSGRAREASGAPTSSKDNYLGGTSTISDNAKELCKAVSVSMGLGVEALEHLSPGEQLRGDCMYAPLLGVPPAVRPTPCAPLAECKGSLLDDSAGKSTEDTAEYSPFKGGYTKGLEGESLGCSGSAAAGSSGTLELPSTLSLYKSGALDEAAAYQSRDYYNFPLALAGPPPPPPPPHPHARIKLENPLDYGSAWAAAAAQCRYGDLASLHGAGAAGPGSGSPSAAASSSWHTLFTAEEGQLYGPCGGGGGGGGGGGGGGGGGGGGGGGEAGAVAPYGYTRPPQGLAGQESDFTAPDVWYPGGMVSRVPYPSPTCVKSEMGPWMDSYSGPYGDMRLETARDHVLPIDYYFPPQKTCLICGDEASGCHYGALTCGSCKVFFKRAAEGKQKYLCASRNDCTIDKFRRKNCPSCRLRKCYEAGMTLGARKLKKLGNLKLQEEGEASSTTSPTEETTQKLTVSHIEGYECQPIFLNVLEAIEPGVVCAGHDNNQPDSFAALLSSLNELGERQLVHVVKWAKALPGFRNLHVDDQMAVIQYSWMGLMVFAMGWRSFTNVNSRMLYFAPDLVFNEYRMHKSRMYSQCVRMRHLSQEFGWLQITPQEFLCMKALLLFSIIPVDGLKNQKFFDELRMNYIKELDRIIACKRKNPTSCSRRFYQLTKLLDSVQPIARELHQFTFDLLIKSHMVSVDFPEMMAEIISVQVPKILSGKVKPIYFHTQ
T1 sequence (Q6EMB2 838-1281 F1267S partner limits assumed): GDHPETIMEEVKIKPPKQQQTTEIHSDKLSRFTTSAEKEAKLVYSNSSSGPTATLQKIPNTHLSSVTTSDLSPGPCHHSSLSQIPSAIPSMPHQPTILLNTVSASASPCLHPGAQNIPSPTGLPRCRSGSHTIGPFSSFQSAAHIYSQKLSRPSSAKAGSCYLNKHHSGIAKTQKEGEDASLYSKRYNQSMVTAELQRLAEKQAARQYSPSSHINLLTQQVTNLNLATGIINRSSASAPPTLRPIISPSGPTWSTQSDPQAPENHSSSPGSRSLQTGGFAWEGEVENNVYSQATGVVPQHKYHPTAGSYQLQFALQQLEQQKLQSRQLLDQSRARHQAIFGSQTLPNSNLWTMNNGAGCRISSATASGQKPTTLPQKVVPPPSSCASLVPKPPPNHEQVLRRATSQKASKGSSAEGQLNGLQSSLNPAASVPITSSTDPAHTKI
Assay: Mammalian two-hybrid assay with VP16 full length receptor: AR
Assay type: cell-based
Details: 1 nM R1881
Description: FIG. 6C1-3 illustrate the association of STAMP with assorted steroid/nuclear receptors, including glucocorticoid receptors (GRs), progesterone receptors (PRs), androgen receptors (ARs), estrogen receptors (ER α or β), PPARγ2 receptors, thyroid receptor beta (TR), and retinoid (α) receptors (RAR α or RXR α). Triplicate samples of CV-1 cells were transfected (as described for FIG. 6B) with GAL, or GAL fused to TIF2.4 or STAMP834C, plus VP16 fused to the indicated full length receptors and incubated with the appropriate steroid (1 μM Dex, 20 nM R5020, 1 nM R1881, 0.1 μM triiodothyronine, or 1 μM estradiol, roziglitazone, or 9-cis-retinoic acid). The average relative luciferase activities of 2-3 experiments±S.E.M. were then plotted. FIG. 6C1 illustrates the effects of STAMP association upon GR, PR and AR induced expression. FIG. 6C2 illustrates the effects of STAMP association upon ERα, ERβ and PPARγ2 induced expression. FIG. 6C3 illustrates the effects of STAMP association upon TR, RARα and RXRα induced expression.
These assays were conducted as described (He et al., 2002). […]

interaction with agonist-bound, full length AR: interacted
B1: STAMP834C: STAMP fragment amino acids 834-1277, receptor interaction domain (RID) (protein)
chain: T1 sequence (Q6EMB2 838-1281 F1267S partner limits assumed)
